Measured values: patent publication US20090004212A1, “Tumour vaccines for MUC1-positive carcinomas” (priority 1997, published 2009)
No end group written: not given here. *: point of attachment. αGalNAc = CC(=O)N[C@@H]1[C@@H](O)[C@@H](O)[C@@H](CO)O[C@@H]1*

Experiments:
[1] = target: T1, human 20S immunoproteasomes (Homo sapiens, UniProt P28062+P28065+P40306); test: In vitro proteolysis of MUC1 repeat peptides and glycopeptides by immunoproteasomes; type: biochemical
T1 construct: purchased Immatics Biotechnologies (Tübingen, Germany)
Experimental: A 1 mg/ml solution of immunoproteasomes prepared according to a published protocol (20) was purchased from Immatics Biotechnologies (Tübingen, Germany) and stored frozen at −80° C.
(§1) Glycopeptides were incubated with 10 μg of human 20S immunoproteasomes (Immatics) for […], at 37° C., in 10 μl of digestion buffer (20 mM HEPES/KOH, pH 7.6 containing 2 mM Mg(CH3COO)2 and 1 mM DTT) as described (13). Digestion was stopped after 24 h by freezing the sample at −80° C. Human cathepsin-L was purchased from Sigma (Munich, Germany) and solubilized in 0.1 M sodium acetate, pH 5.5, containing 1 mM EDTA and 1 mM dithiothreitol (12). About 5 mU of enzyme were added to sialoglycopeptide substrates SGGP1 to SGGP5 (75-100 μM) in a total volume of 20 μl. The reaction mixtures were incubated at 37° C. for 24 h and 1 μl of trifluoroacetic acid was added to stop the reaction. The reaction products were cleaned by solid-phase extraction on ZipTipC18 pipette tips and 0.5 μl aliquots were applied onto the MALDI target for mass spectrometric analysis. Kinetic studies with the non-glycosylated 100-mer P1 were performed under the same conditions and the products were chromatographed on HPLC for purification and quantification.

[2] = target: T2, Human cathepsin-L (Homo sapiens, UniProt P07711); test: In vitro proteolysis by cathepsin-L; type: biochemical; conditions: 37° C., 24 h
T2 construct: purchased Sigma (Munich, Germany)
T2 sequence (P07711 114-333): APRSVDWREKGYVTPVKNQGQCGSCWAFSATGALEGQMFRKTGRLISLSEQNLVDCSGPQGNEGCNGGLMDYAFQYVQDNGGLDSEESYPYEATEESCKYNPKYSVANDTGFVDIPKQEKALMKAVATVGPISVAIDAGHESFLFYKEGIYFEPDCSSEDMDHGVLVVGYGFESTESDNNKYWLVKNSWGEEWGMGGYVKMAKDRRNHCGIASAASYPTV
Experimental: as §1

[3] = target: T3, HLA-A0201 (Homo sapiens, UniProt P04439, D140Y/D185E/D98H/E176V/E277Q/G131W/G231S/I119V/I121R/I166T/I218V/L300P/L318F/N151K/N90K/P208A/P217A/Q86G/Q94H/R138H/R169H/T345S); test: MHC stabilization assay on T2 cells; type: binding; conditions: T2 cells, 100 μg peptide, 16 h, W6/32 antibody, FACS
T3 construct: endogenous in cells; host or cells: T2 cell line (TAP-deficient)
Experimental: MHC stabilization assay is based on the increased affinity of HLA-A, -B, -C specific monoclonal W6/32 antibody for the stabilized conformation of MHC molecules after binding of a peptide ligand. The T2 cells express empty MHC molecules with short half-life.
For MHC stabilization assay T2 cells were grown in IMDM medium supplemented with 2% FCS. T2 cells were washed in PBS from the residual serum, and resuspended at 1×10^6/ml of IMDM supplemented with 0.1% FCS and 25 mM HEPES. Half of a million of cells were incubated in 48-well cell culture plate with 1 μg of […]2-microglobulin and 100 μg of peptide for 16 h at 27° C. and 8% CO2. Cells were washed with 5 ml PBS, centrifuged at 180×g for 5 min and the pellet was resuspended in 10 μl PBS containing 1 μg of W6/32 antibody and incubated at 4° C. for 30 minutes.
Subsequently, cells were washed in PBS with 1% BSA (3×5 ml) and the pellet was resuspended in 50 μl of secondary anti-mouse Alexa 488 antibody (1:1000 in PBS with 0.1% BSA), incubated for 30 minutes in the dark, washed with PBS (3×5 ml) and resuspended in 500 μl of PBS. Binding of the W6/32 antibody to MHC class I molecules was analyzed by FACS on the Beckman Coulter ADCXL4C flow cytometer. As a positive control hepatitis B virus core antigen HBVc18-27 P6Y˜C ([…]) was used. As a negative control T2 cells were used, to which no peptide was added.
Relative binding capacities of the peptides were expressed as the percent of the positive control signal (100%), normalized to the negative control (0%). A mean fluorescence that was at least 10% higher than the negative control level was considered positive binding.

[4] = system: CD8+ T-cells; test: IFN-gamma and TNF-alpha production by peptide-primed T-cells; type: cell-based, human; conditions: after last cycle of restimulation, 4 weeks of in vitro culture
Experimental: (§2) Peripheral blood mononuclear cells (PBMCs) were isolated from buffy coats of HLA-A*0201 healthy donors by Ficoll-Hypaque (MP Biomedicals, Solon, Ohio) density gradient centrifugation.
(§3) Dendritic cells (DCs) were generated by culturing adherent monocytes for 6 days in AIM-V medium (Invitrogen, Carlsbad, Calif.) supplemented with 500 U/mL granulocyte macrophage colonystimulating factor (GM-CSF, R&D, Minneapolis, Minn.) and 1000 U/mL interleukin (IL)-4 (R&D), and then matured for 48 hours with a cocktail of cytokines consisting of 10 ng/mL of each, tumor necrosis factor (TNF)-alpha, IL-6, IL-1beta (R&D), and 1 μg/mL prostaglandine E2 (Sigma, St. Louis, Mo.). […] DCs pulsed with single peptides were combined, washed, resuspended and used as stimulator cells. They were added to the autologous lymphocyte fraction in 24-well Linbro plates (ICN, Aurora, Ohio) at a ratio of 1:10 at culture initiation and fed in RPMI 1640 media supplemented with 10% human AB serum, 10 ng/ml rhIL-6 (R&D) and 5 ng/ml rhIL-12 (PreproTech, Rocky Hill, N.J.). On day 10 and thereafter every 9 days, T cells were restimulated at a ratio of 1 DC to 20 T cells, in RPMI 1640 media supplemented with 10% human AB serum, rhIL-2 and rhIL-7 (20 U/ml each, R&D).
(§4) Antigen Specificity was Assessed after 4 Stimulations. Three Days Past Each stimulation cell supernatant was collected and IFNy secretion was quantified using OptElA human IFNy ELISA kit (BD). CD8+ T-cells were enriched using magnetic microbeads (human CD8+ T Cell Isolation Kit II from Miltenyi Biotech, Auburn, Calif.) according to the manufacture's instructions and analyzed by flow cytometry for intracellular IFN-gamma and TNF-alpha production after a final 5-hour restimulation with peptide-loaded DCs in the presence of monensin (Golgi Stop, BD; 21). CTL activity was determined 3 days after the last restimulation. […] They were washed, labeled with 5- (and 6)-carboxyfluorescein diacetate succinimidyl ester (CFSE) according to the manufacture's instructions (Immunochemistry, Bloomington, Minn.) and added to a 96-well plate in duplicates at 5000 cells/well. CFSE labeled T2 cells not loaded with peptides were used as controls. CD8+ T effector cells were added at various E:T ratios for a 6-hour incubation at 37° C. Target cell death was detected by adding 7-amino-actinomycin (7-AAD, Immunochemistry) to each well 10 min before data analysis by flow cytometry and analysis was performed according to the manufacture's instructions (22).

[5] = system: T2 target cells; test: CTL activity against peptide-loaded T2 target cells (CFSE/7-AAD); type: cell-based, human; conditions: T2 cells loaded with 10 μg/ml peptide, 6-hour incubation
Experimental: as §2, §3, §4

[6] = target: T4, HLA-A*0201 allele of the MHC class I molecule, empty, on the surface of TAP-deficient T2 cells (human); test: MHC stabilization assay on T2 cells, W6/32 staining, flow cytometry
T4 construct: also called HLA-A2

(CVISAPDTRPAPGSTAPPAH)x5 [Peptide P1]
AVERAGE FRAGMENT LENGTH ([1]; digest by immunoproteasomes): 25.2 | NUMBER OF FRAGMENTS ([1]; digest by immunoproteasomes, HPLC and MALDI-MS): 105 | % of glycopeptide ([1]; glycosylated 8- to 11-meric fragments relative to total 8- to 11-mers): 0% | 8-11 mers (%) ([1]; relative to total amount of digestion products of immunoproteasomal cleavage): 13% | digestion of the substrate by cathepsin L [2]: quantitative digestion of the substrate within 24 h

SAPDT(-GalNAc)RPAPG (SAPDTRPAPG) [Peptide F2]
ligation strength (binding to HLA-A0201) [3]: strong binding | ligation strength (binding to HLA-A0201) ([3]; listed as SAP10-T5*): binding comparably strong in the glycosylated and non-glycosylated form | ligation strength (binding to HLA-A0201) ([3]; listed as SAP10-T5-GalNAc): slightly weaker binding | CD8+ cells producing IFN-γ [4]: 22% | TNF-α production by CD8+ cells [4]: not TNF-α | lysis of peptide-pulsed T2 target cells by induced CD8+ T cells [5]: efficiently lysed | lysis of peptide-pulsed T2 target cells by induced CD8+ T cells ([5]; listed as SAP10-T5*): efficiently kill

SAPDTRPAPG (fragment of MUC1; listed as Homo sapiens) [Peptide F1]
ligation strength (binding to HLA-A0201) [3]: strongest binders | CD8+ cells producing IFN-γ [4]: 28.8% | TNF-α production by CD8+ cells [4]: not TNF-α | lysis of peptide-pulsed T2 target cells by induced CD8+ T cells [5]: efficiently lysed | lysis of peptide-pulsed T2 target cells by induced CD8+ T cells ([5]; listed as SAP10): efficiently kill

SAPDTRPAPG (also called F1) [SAP10, non-glycosylated MUC1 tandem repeat peptide SAPDTRPAPG]
binding result [6]: binds

B1: SAPDT(-GalNAc)RPAPG (SAP10-T5*) (peptide)
peptide: SAPDT(αGalNAc)RPAPG
notes: Glycopeptide; also called SAP10-T5-GalNAc; F2
binding result [6]: binds
